Source: PMC10500825, “TGFβ1-RCN3-TGFBR1 loop facilitates pulmonary fibrosis by orchestrating fibroblast activation” (Respiratory Research, 2023)

Biological target: T1, recombinant human EZH2 protein, biotinylated (human, UniProt Q15910 1-746, biotin (Biotinylation Kit, Thermo Scientific 21329))
T1 construct: Enhancer of zeste homolog 2 (EZH2), human recombinant protein, Origene TP302054; check the vendor's sheet; also called rhEZH2; source: bought: Origene (TP302054), biotinylated and desalted
Experiment: BLI; OctetRED; his-tagged rhRcn3 (5 µg/ml) immobilised on NTA biosensors; biotinylated rhEZH2 at 262.3, 131.1, 65.56 and 32.78 µg/ml in binding buffer; association and dissociation for 10 min at 25 °C
Settings: both partners purified

T1 sequence (Q15910 whole entry): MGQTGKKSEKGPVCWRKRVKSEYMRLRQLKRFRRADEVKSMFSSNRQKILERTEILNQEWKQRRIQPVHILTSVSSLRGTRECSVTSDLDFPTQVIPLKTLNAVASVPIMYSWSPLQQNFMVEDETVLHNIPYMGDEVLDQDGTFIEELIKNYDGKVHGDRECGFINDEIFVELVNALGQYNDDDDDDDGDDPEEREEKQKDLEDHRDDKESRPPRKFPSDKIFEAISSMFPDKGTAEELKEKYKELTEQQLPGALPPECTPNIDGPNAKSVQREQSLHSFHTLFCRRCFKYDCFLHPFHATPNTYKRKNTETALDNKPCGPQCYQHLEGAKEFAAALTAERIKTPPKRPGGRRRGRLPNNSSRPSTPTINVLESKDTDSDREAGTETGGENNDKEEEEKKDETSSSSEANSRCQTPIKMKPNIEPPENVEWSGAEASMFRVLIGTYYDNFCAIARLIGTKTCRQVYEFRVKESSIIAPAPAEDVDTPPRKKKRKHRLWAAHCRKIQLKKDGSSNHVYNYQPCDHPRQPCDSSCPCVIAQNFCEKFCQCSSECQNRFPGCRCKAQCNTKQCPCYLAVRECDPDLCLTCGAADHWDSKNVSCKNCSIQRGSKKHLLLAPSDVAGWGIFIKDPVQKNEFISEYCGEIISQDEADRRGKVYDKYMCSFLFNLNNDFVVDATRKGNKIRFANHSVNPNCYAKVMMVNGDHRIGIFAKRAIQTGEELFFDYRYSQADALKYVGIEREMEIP

- Kd: 1540 nM
B1: recombinant human Rcn3 with his-tag (natural protein, UniProt Q96D15 21-328, looked up)
chain: KPSPDAGPHGQGRVHQAAPLSDAPHDDAHGNFQYDHEAFLGREVAKEFDQLTPEESQARLGRIVDRMDRAGDGDGWVSLAELRAWIAHTQQRHIRDSVSAAWDTYDTDRDGRVGWEELRNATYGHYAPGEEFHDVEDAETYKKMLARDERRFRVADQDGDSMATREELTAFLHPEEFPHMRDIVIAETLEDLDRNKDGYVQVEEYIADLYSAEPGEEEPAWVQTERQQFRDFRDLNKDGHLDGSEVGHWVLPPAQDQPLVEANHLLHESDTDKDGRLSKAEILGNWNMFVGSQATNYGEDLTRHHDEL
notes: Reticulocalbin 3 (RCN3), human recombinant protein, Abcam ab276552; Construct limits are those of the vendor's product; also called rhRcn3; hrRcn3; source: bought: Abcam (ab276552)
